Test results reported in PMC9352726 (Nature Communications, 2022).

Tests used:
[1] = target: T1, purified recombinant YspE1, full length (Yersinia pestis, UniProt A0A3N4BII9 1-626); experiment: SPR; Biacore T200; […] (0–20 μM) […] (20 mM HEPES pH 7.4, 150 mM NaCl, 3.4 mM EDTA, 0.005% P20); 25 °C; settings: both partners purified
T1 sequence: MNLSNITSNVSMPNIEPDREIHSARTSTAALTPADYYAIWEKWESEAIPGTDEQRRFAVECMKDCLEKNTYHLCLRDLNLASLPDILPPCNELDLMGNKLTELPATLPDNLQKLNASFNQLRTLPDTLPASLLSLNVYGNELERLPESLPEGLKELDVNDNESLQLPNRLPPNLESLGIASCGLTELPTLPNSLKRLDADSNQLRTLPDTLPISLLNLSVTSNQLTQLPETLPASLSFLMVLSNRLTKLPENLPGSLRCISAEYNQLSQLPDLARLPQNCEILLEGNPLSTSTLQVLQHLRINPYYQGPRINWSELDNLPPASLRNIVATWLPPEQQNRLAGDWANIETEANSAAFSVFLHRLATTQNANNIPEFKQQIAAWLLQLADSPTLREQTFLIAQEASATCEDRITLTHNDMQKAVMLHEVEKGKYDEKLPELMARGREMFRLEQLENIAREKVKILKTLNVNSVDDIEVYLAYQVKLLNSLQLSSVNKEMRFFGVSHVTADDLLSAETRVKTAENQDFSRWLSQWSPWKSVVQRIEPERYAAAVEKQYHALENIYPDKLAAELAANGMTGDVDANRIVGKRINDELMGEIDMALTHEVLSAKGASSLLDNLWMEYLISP

[2] = target: T2, purified recombinant YspE2, full length (Yersinia pestis, UniProt A0AAP0VE47 1-605); experiment: as above; settings: both partners purified
T2 sequence: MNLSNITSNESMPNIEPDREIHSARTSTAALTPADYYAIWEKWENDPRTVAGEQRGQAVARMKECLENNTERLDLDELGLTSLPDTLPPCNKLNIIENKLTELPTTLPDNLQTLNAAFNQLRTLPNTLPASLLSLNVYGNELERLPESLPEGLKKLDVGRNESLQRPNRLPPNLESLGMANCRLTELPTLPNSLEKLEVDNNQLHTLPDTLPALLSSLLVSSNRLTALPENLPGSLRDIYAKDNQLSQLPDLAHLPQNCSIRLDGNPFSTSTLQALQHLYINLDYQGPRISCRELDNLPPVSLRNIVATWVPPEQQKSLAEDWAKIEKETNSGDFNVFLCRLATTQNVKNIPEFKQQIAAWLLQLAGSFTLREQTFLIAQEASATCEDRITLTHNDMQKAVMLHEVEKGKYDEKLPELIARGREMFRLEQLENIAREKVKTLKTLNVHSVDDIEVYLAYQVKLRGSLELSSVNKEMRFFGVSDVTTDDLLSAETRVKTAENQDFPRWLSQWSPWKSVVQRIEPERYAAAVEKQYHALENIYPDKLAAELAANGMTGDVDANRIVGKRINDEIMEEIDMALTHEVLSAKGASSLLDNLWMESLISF

B1: purified recombinant human guanylate-binding protein 1 (hGBP1) (natural protein, UniProt P32455 1-592, looked up)
chain: MASEIHMTGPMCLIENTNGRLMANPEALKILSAITQPMVVVAIVGLYRTGKSYLMNKLAGKKKGFSLGSTVQSHTKGIWMWCVPHPKKPGHILVLLDTEGLGDVEKGDNQNDSWIFALAVLLSSTFVYNSIGTINQQAMDQLYYVTELTHRIRSKSSPDENENEVEDSADFVSFFPDFVWTLRDFSLDLEADGQPLTPDEYLTYSLKLKKGTSQKDETFNLPRLCIRKFFPKKKCFVFDRPVHRRKLAQLEKLQDEELDPEFVQQVADFCSYIFSNSKTKTLSGGIQVNGPRLESLVLTYVNAISSGDLPCMENAVLALAQIENSAAVQKAIAHYEQQMGQKVQLPTETLQELLDLHRDSEREAIEVFIRSSFKDVDHLFQKELAAQLEKKRDDFCKQNQEASSDRCSALLQVIFSPLEEEVKAGIYSKPGGYRLFVQKLQDLKKKYYEEPRKGIQAEEILQTYLKSKESMTDAILQTDQTLTEKEKEIEVERVKAESAQASAKMLQEMQRKNEQMMEQKERSYQEHLKQLTEKMENDRVQLLKEQERTLALKLQEQEQLLKEGFQKESRIMKNEIQDLQTKMRRRKACTIS
notes: also called pSUMO-hGBP1
B1 gave a Kd [1] of 370 nM and a Kd [2] of 1500 nM.
